T1: LNX2_3, Q8N448
T1 sequence (Q8N448 463-564, limits assumed, looked up): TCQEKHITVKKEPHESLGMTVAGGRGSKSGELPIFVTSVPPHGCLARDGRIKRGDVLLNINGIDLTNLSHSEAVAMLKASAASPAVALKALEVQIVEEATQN

T2: NHERF3_4, Q5T2W1
T2 sequence (Q5T2W1 373-468, limits assumed, looked up): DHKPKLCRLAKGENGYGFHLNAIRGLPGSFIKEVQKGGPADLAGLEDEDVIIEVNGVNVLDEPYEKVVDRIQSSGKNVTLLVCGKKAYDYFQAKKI

T3: RAPGEF6, Q8TEU7
T3 sequence (Q8TEU7 525-625, limits assumed, looked up): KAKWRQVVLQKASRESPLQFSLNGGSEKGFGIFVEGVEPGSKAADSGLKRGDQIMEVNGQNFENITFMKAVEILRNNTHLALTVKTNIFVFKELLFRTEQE

T4: LIN7A, O14910
T4 sequence (O14910 103-200, limits assumed, looked up): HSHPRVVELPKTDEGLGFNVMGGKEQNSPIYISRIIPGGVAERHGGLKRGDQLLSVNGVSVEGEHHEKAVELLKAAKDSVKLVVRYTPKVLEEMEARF

T5: CARD11, Q9BXL7
T5 sequence (Q9BXL7 662-765, limits assumed, looked up): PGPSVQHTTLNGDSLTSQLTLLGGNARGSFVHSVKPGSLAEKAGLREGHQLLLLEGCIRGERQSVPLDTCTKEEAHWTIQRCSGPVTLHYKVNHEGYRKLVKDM

T6: PDZD2_2, O15018
T6 sequence (O15018 329-429, limits assumed, looked up): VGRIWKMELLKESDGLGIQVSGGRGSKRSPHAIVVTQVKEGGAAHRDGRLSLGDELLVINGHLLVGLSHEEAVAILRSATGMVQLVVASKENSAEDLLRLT

T7: APBA1_2, Q02410
T7 sequence (Q02410 742-832, limits assumed, looked up): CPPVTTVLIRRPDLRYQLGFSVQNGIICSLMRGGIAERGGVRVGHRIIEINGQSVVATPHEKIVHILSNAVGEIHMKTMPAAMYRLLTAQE

T8: SHANK1, Q9Y566
T8 sequence (Q9Y566 658-767, limits assumed, looked up): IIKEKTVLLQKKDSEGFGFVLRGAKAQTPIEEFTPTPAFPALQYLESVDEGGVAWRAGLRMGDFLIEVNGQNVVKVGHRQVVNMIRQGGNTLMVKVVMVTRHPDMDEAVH

T9: MPDZ_12, O75970
T9 sequence (O75970 1857-1958, limits assumed, looked up): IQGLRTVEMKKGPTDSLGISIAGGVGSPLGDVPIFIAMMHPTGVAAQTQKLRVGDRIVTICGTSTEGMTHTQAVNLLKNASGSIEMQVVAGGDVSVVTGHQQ


Experiments:
Assay in all cases: holdup assay
Parameters in all cases: key: below the threshold = too weak to quantify, mostly under pKd 3.1 to 4
Settings in all cases: plain residues with an end cap or a label only (N-terminal biotin on a linker: ado-ado)
LNX2_3, Q8N448 = target: T1, LNX2_3, Q8N448
GRIP2_6, Q9C0E4 = target: GRIP2_6, Q9C0E4
GRIP2_6, Q9C0E4, sequence (Q9C0E4 648-740): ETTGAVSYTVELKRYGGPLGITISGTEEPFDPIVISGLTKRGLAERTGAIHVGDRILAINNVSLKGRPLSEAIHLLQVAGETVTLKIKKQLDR

NHERF3_4, Q5T2W1 = target: T2, NHERF3_4, Q5T2W1
RAPGEF6, Q8TEU7 = target: T3, RAPGEF6, Q8TEU7
LIN7A, O14910 = target: T4, LIN7A, O14910
CARD11, Q9BXL7 = target: T5, CARD11, Q9BXL7
PDZD2_2, O15018 = target: T6, PDZD2_2, O15018
SNX27, Q96L92 = target: SNX27, Q96L92
MAGI1_1, Q96QZ7 = target: MAGI1_1, Q96QZ7
MAGI1_1, Q96QZ7, sequence (Q96QZ7 1-106): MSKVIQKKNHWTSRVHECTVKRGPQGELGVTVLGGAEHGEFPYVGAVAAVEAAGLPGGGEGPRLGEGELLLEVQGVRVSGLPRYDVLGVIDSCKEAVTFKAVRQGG

MAGI2_2, Q86UL8 = target: MAGI2_2, Q86UL8
MAGI2_2, Q86UL8, sequence (Q86UL8 410-522): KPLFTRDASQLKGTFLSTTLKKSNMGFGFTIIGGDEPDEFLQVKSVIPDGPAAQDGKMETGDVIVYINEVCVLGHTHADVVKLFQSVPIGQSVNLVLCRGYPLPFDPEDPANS

Inadl_8, Q8NI35 = target: Inadl_8, Q8NI35
Inadl_8, Q8NI35, sequence (Q8NI35 1425-1530): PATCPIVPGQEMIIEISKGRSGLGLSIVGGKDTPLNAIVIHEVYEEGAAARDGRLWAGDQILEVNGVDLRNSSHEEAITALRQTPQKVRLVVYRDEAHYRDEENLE

LIMK2, P53671 = target: LIMK2, P53671
LIMK2, P53671, sequence (P53671 143-248): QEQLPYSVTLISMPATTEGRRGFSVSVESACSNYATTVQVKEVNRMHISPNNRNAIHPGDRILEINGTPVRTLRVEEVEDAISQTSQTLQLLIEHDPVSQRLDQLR

PARD3_3, Q8TEW0 = target: PARD3_3, Q8TEW0
PARD3_3, Q8TEW0, sequence (Q8TEW0 582-685): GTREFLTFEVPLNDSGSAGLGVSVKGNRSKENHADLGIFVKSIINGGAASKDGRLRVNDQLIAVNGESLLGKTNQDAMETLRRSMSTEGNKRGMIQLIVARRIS

GRASP, Q7Z6J2 = target: GRASP, Q7Z6J2
GRASP, Q7Z6J2, sequence (Q7Z6J2 96-193): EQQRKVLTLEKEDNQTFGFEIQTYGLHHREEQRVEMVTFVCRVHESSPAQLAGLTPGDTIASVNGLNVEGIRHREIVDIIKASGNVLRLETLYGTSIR

NHERF2_2, Q15599 = target: NHERF2_2, Q15599
NHERF2_2, Q15599, sequence (Q15599 142-238): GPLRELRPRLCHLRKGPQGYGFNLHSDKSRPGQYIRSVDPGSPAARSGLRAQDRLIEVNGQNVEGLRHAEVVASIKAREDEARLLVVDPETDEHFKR

IL16_4, Q14005 = target: IL16_4, Q14005
IL16_4, Q14005, sequence (Q14005 1229-1329): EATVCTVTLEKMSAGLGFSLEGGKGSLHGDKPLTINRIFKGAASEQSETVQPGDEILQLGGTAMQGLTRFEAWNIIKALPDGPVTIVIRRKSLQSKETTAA

APBA1_2, Q02410 = target: T7, APBA1_2, Q02410
NHERF4_1, Q86UT5-2 = target: NHERF4_1, Q86UT5-2
NHERF4_1, Q86UT5-2, sequence (Q86UT5 other isoform, or with tags, fused parts or gaps): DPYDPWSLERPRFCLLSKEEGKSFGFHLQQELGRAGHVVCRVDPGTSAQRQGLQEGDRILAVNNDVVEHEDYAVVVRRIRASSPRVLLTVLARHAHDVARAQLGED

SHANK1, Q9Y566 = target: T8, SHANK1, Q9Y566
LNX1_3, Q8TBB1 = target: LNX1_3, Q8TBB1
LNX1_3, Q8TBB1, sequence (Q8TBB1 500-596): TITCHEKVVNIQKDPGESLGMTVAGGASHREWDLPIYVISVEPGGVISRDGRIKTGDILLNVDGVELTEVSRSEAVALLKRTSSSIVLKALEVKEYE

TJP2_1, Q9UDY2 = target: TJP2_1, Q9UDY2
TJP2_1, Q9UDY2, sequence (Q9UDY2 24-128): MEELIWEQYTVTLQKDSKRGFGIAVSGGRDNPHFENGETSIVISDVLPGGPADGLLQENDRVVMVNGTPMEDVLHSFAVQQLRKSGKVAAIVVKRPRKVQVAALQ

Inadl_3, Q8NI35 = target: Inadl_3, Q8NI35
Inadl_3, Q8NI35, sequence (Q8NI35 359-469): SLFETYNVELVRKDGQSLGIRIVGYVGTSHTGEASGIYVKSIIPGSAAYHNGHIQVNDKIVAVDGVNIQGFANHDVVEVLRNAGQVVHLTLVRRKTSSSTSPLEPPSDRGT

MPDZ_12, O75970 = target: T9, MPDZ_12, O75970
SCRIB_1, Q14160 = target: SCRIB_1, Q14160
SCRIB_1, Q14160, sequence (Q14160 718-814): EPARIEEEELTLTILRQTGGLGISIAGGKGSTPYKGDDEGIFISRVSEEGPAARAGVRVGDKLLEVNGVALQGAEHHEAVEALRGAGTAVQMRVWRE

DLG4_3, P78352 = target: DLG4_3, P78352
DLG4_3, P78352, sequence (P78352 306-403): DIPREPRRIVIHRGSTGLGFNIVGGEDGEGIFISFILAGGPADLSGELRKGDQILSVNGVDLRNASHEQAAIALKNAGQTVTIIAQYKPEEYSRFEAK

DLG5_1, Q8TDM6 = target: DLG5_1, Q8TDM6
DLG5_1, Q8TDM6, sequence (Q8TDM6 617-713): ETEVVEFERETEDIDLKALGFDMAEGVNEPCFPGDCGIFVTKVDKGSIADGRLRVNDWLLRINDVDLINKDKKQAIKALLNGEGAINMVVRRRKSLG

Inadl_9, Q8NI35 = target: Inadl_9, Q8NI35
Inadl_9, Q8NI35, sequence (Q8NI35 1530-1615): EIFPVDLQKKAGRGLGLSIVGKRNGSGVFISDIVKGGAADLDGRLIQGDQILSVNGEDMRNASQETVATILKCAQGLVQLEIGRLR

HTRA2, O43464 = target: HTRA2, O43464
HTRA2, O43464, sequence (O43464 355-458): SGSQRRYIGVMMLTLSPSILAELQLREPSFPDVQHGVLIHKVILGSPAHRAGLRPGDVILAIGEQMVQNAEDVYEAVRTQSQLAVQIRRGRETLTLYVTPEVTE

GRIP2_4, Q9C0E4 = target: GRIP2_4, Q9C0E4
GRIP2_4, Q9C0E4, sequence (Q9C0E4 446-548): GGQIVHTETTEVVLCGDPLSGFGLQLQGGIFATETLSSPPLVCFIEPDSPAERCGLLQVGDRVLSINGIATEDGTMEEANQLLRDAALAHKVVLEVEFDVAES

Row | pKd (LNX2_3, Q8N448) | pKd (GRIP2_6, Q9C0E4) | pKd (NHERF3_4, Q5T2W1) | pKd (RAPGEF6, Q8TEU7) | pKd (LIN7A, O14910) | pKd (CARD11, Q9BXL7) | pKd (PDZD2_2, O15018) | pKd (SNX27, Q96L92) | pKd (MAGI1_1, Q96QZ7) | pKd (MAGI2_2, Q86UL8) | pKd (Inadl_8, Q8NI35) | pKd (LIMK2, P53671) | pKd (PARD3_3, Q8TEW0) | pKd (GRASP, Q7Z6J2) | pKd (NHERF2_2, Q15599) | pKd (IL16_4, Q14005) | pKd (APBA1_2, Q02410) | pKd (NHERF4_1, Q86UT5-2) | pKd (SHANK1, Q9Y566) | pKd (LNX1_3, Q8TBB1) | Binder | also measured
1 | below the threshold | below the threshold | below the threshold | below the threshold | below the threshold | below the threshold | 4.82 | 4.1 | below the threshold | 4 | 3.91 | below the threshold | below the threshold | 3.49 | 3.51 | 3.7 | 4.38 | 3.51 | below the threshold | below the threshold | GSSSKEGTSV [RRBP1, Q9P2E9] | pKd (TJP2_1, Q9UDY2): below the threshold; pKd (Inadl_3, Q8NI35): below the threshold; pKd (MPDZ_12, O75970): below the threshold; pKd (SCRIB_1, Q14160): below the threshold; pKd (DLG4_3, P78352): 3.64; pKd (DLG5_1, Q8TDM6): below the threshold; pKd (Inadl_9, Q8NI35): 3.57; pKd (HTRA2, O43464): below the threshold; pKd (GRIP2_4, Q9C0E4): below the threshold
2 | below the threshold | 3.48 | 3.54 | below the threshold | 3.65 | below the threshold | 3.68 | 5.4 | 3.62 | below the threshold | 3.52 | below the threshold | below the threshold | 3.69 | 4.27 | 3.8 | below the threshold | 3.91 | 3.76 | 3.66 | QLAEIAESGL [ITK, Q08881] | pKd (TJP2_1, Q9UDY2): below the threshold; pKd (Inadl_3, Q8NI35): below the threshold; pKd (MPDZ_12, O75970): 3.53; pKd (SCRIB_1, Q14160): 3.75; pKd (DLG4_3, P78352): 3.62; pKd (DLG5_1, Q8TDM6): 3.78; pKd (Inadl_9, Q8NI35): below the threshold; pKd (HTRA2, O43464): below the threshold; pKd (GRIP2_4, Q9C0E4): 3.49
3 | below the threshold | below the threshold | below the threshold | 3.49 | below the threshold | below the threshold | below the threshold | below the threshold | below the threshold | below the threshold | below the threshold | below the threshold | below the threshold | below the threshold | below the threshold | below the threshold | below the threshold | below the threshold | below the threshold | below the threshold | EGGKKRESEA [APPL1, Q9UKG1] | pKd (TJP2_1, Q9UDY2): below the threshold; pKd (Inadl_3, Q8NI35): below the threshold; pKd (MPDZ_12, O75970): 3.54; pKd (SCRIB_1, Q14160): below the threshold; pKd (DLG4_3, P78352): below the threshold; pKd (DLG5_1, Q8TDM6): below the threshold; pKd (Inadl_9, Q8NI35): below the threshold; pKd (HTRA2, O43464): below the threshold; pKd (GRIP2_4, Q9C0E4): below the threshold
4 | below the threshold | below the threshold | below the threshold | below the threshold | below the threshold | below the threshold | below the threshold | below the threshold | below the threshold | below the threshold | below the threshold | below the threshold | below the threshold | below the threshold | 3.89 | below the threshold | below the threshold | 4.05 | below the threshold | below the threshold | ADRDHASDQL [CTBP1, Q13363] | pKd (TJP2_1, Q9UDY2): below the threshold; pKd (Inadl_3, Q8NI35): below the threshold; pKd (MPDZ_12, O75970): below the threshold; pKd (SCRIB_1, Q14160): below the threshold; pKd (DLG4_3, P78352): below the threshold; pKd (DLG5_1, Q8TDM6): below the threshold; pKd (Inadl_9, Q8NI35): below the threshold; pKd (HTRA2, O43464): below the threshold; pKd (GRIP2_4, Q9C0E4): below the threshold
